In publication PMC5913127 (Scientific Reports, 2018):

B1: BAN2401: anti-Aβ clinical candidate antibody, Ph2; mouse analog mAb158 (antibody, chains of the INN, looked up, V domains shown)
VH: EVQLVESGGGLVQPGGSLRLSCSASGFTFSSFGMHWVRQAPGKGLEWVAYISSGSSTIYYGDTVKGRFTISRDNAKNSLFLQMSSLRAEDTAVYYCAREGGYYYGRSYYTMDYWGQGTTVTVSS
VL: DVVMTQSPLSLPVTPGAPASISCRSSQSIVHSNGNTYLEWYLQKPGQSPKLLIYKVSNRFSGVPDRFSGSGSGTDFTLRISRVEAEDVGIYYCFQGSHVPPTFGPGTKLEIK
B2: gantenerumab: anti-Aβ clinical candidate antibody, Ph3 (antibody, chains of the INN, looked up, V domains shown)
VH: QVELVESGGGLVQPGGSLRLSCAASGFTFSSYAMSWVRQAPGKGLEWVSAINASGTRTYYADSVKGRFTISRDNSKNTLYLQMNSLRAEDTAVYYCARGKGNTHKPYGYVRYFDVWGQGTLVTVSS
VL: DIVLTQSPATLSLSPGERATLSCRASQSVSSSYLAWYQQKPGQAPRLLIYGASSRATGVPARFSGSGSGTDFTLTISSLEPEDFATYYCLQIYNMPITFGQGTKVEIK
B3: ^chgantenerumab: murine chimeric IgG2a/kappa analog with the variable domains of gantenerumab (antibody, chains of the INN, looked up, V domains shown)
VH: QVELVESGGGLVQPGGSLRLSCAASGFTFSSYAMSWVRQAPGKGLEWVSAINASGTRTYYADSVKGRFTISRDNSKNTLYLQMNSLRAEDTAVYYCARGKGNTHKPYGYVRYFDVWGQGTLVTVSS
VL: DIVLTQSPATLSLSPGERATLSCRASQSVSSSYLAWYQQKPGQAPRLLIYGASSRATGVPARFSGSGSGTDFTLTISSLEPEDFATYYCLQIYNMPITFGQGTKVEIK
modifications: murine chimeric IgG2a/kappa

Legend:
[1] = test system: Aβ (Monomer, Aggregate); settings: A = aggregate, M = monomer; ref [9]–[19],[54] as given per antibody in column Ref. of Table 1; cited from earlier work
[2] = biological target: Aβ1-40; assay: ELISA, binding of Fab fragments to biotinylated Aβ1-40 on streptavidin-coated plates; settings: papain-generated Fab fragments, Aβ1-40-Lys-Biotin 1 μg/mL on streptavidin plates, average of two measurements
Experimental: For binding studies with Fab fragments, biotin-conjugated Aβ1-40 (Aβ1-40-Lys-Biotin; AnaSpec) was captured on streptavidin-coated plates (Thermo Fisher Scientific) by incubating 50 μL/well of the peptide at a concentration of 1 μg/mL in Assay Buffer (PBS containing 1% bovine serum albumin (BSA)) for 1 h at room temperature. Plates were washed with Wash Buffer (PBS containing 0.05% Tween-20) and blocked for 1 h at room temperature with Blocking Buffer (PBS containing 1% BSA). Antibodies or Fabs were serially diluted to the indicated concentrations in Assay Buffer, and 50 μL/well were added to plates in duplicate wells and incubated for 2 h at room temperature. Plates were washed three times with Wash Buffer, and bound antibodies or Fabs were detected using a horseradish peroxidase (HRP)-conjugated goat anti-mouse polyclonal secondary antibody (Jackson ImmunoResearch), followed by measurement of captured HRP by incubation with 1-Step TMB substrate (Thermo Fisher Scientific) following the manufacturer’s instructions.

[3] = biological target: Aβ1-16 peptide; assay: Microscale thermophoresis (MST); assay type: binding; settings: MST in solution; 5-TAMRA-labeled Aβ1-16; PBS, Triton X-100; average of three replicates
[4] = test system: soluble Aβ1-28; assay: SPR, soluble Aβ1-28 binding to surface-captured intact antibody
Experimental: Analysis of A binding kinetics using surface plasmon resonance (SPR)
To identify if surface immobilization through C -terminal biotin affects the bi nding of antibodies targeting the N terminus, a separate experiment was performed, in which the binding of soluble Aβ1-28 to surface-captured antibody was measured (Fig. S1). This truncated form of A β was used to minimize aggregation and contains the full epitope for all antibodies tested (Table 1). Intact antibody was captured at 100 -600 RU on a CM5 chip prepared with mouse antibody capture reagent (GE Healthcare), and the binding response of Aβ1-28 was measured relative to a reference sensor with no anti -Aβ antibody. In this assay
Surface plasmon resonance analysis of A1-28 binding to anti-A antibodies immobilized on a muIgG -capture sensor chip surface.
corresponding fits to a 1:1 binding model (red curves).
up to 30 µM. Kinetics and affinity constants determined are listed in (e).

[5] = test system: tetrameric Aβ1-15 MAP; assay: ELISA with multi-antigen peptides, tetramer; assay type: binding; settings: result in words
Experimental: (§1) Aβ peptide binding to anti-Aβ antibodies measured by isothermal titration calorimetry (ITC). Titration of mAb with Aβ1-28 peptide. […]
(§2) mAb:Aβ ratio. The solid line is the fit to a two-site binding model (2 Aβ peptides binding to 1 mAb). The average KD values were calculated from […]
(§3) ELISA of binding of anti-Aβ antibodies to bivalent and tetravalent multi-antigen peptides Biotinylated Aβ1-15 multivalent multi-antigen peptides (MAPs) based on branched lysine residues were custom synthesized and purified (LifeTein). […]
(§4) goat anti-mouse IgG Fcγ fragment-specific antibody (Jackson ImmunoResearch) in Coating Buffer. The coated plates were washed, blocked as described in Methods, and incubated with serial dilutions of dimeric or tetrameric biotinylated Aβ1-15 MAP in Blocking Buffer at the indicated concent rations in […]
(§5) (1 picture or pasted object on this page, not shown here)
(§6) Figure S5. Binding of anti-Aβ antibodies to dimeric and tetrameric Aβ as assessed by ELISA. (a) Design of biotin-conjugated Aβ1-15 multivalent multi-antigen peptides (MAPs). Binding of anti-Aβ antibodies to MAPs with Aβ1-15x2 dimer (b) and Aβ1-15x4 tetramer (c).

[6] = test system: Aβ1-42 fibrils; assay: Negative-stain EM of fibrils with gold-conjugated antibodies; assay type: binding; settings: fibril-associated gold particles per μm^2; 100 images; chaducanumab higher
Experimental: Aβ1-40 and Aβ1-42 peptides (AnaSpec) were dissolved in 5 M guanidine-HCl, 50 mM Tris-HCl, pH 8.0 at a concentration of 1 mg/mL. For growth of the Aβ1-40 fibrils, the solution was dialyzed (dialysis tubes, 1 kDa cutoff, GE Healthcare) against buffer (100 mM Na2HPO4, pH 8, 0.01% NaN3) for 4–6 h, then sonicated and agitated based on protocols described by Petkova and colleagues. For Aβ1-42 fibrils, the dialysis buffer was supplemented with 100 mM NaCl and 100 μM ZnCl2 to decrease fibril polymorphism, as previously described. All Aβ fibrils were grown at 24 °C for 3 days. […]
A 5-μL aliquot of Aβ1-40 or Aβ1-42 fibril sample (1 mg/mL) was adsorbed for 1 min on a glow-discharged carbon-coated copper grid. […] All quantifications were done using the Visiopharm image analysis software. Gold-conjugated anti-Aβ antibodies and Aβ1-40 or Aβ1-42 fibrils were detected with a customized algorithm. […] The data were subjected to a D’Agostino & Pearson normality test, and P-values were subsequently calculated using a Kruskal-Wallis one-way analysis of variance (ANOVA). […]
100 images were collected for each sample. […] (e) Labeling densities were calculated as the number of fibril-associated gold particles per µm2 for each image with mean ± SD for each group, as described in Fig 3. Quantification of the number of gold particles that […]

[7] = biological target: Aβ1-40 monomer; assay: ELISA-based competition assay: antibody binding to immobilized oligomeric Aβ1-42 competed by free monomeric Aβ1-40; settings: immobilized oligomeric Aβ1-42 2.5 μg/mL, antibody 0.4 nM, 2 h room temperature, mean of duplicate wells
Experimental: Finally, we determined the binding of Fab fragments of the antibodies to Aβ1-40 (Fig. 1d).
To measure competition by soluble monomeric Aβ1-40, plates were coated with Aβ1-42 peptide at 2.5 μg/mL as above. In this case the oligomeric preparation of […] was used as the substrate to ensure sufficient signal with each test antibody. […] The plates were incubated at room temperature for 2 h, and bound antibody was detected with an HRP-conjugated goat anti-mouse polyclonal secondary antibody followed by measurement of HRP activity using 1-Step TMB substrate as described above. All data points are the mean of duplicate wells.

[8] = test system: Aβ1-40 fibrils; assay: Negative-stain EM of fibrils with gold-conjugated antibodies; assay type: binding; settings: fibril-associated 10-nm gold particles (≤10 nm to fibril) per μm^2; 100 images; ^chaducanumab higher
Experimental: Figure 3 Negative-stain electron microscopy of Aβ1-40 fibrils incubated with gold-conjugated anti-Aβ antibodies. […] 100 images were collected for each sample. A representative image for each data set is shown. Scale bars are 100 nm. (e) Labeling densities were calculated as the number of fibril-associated gold particles (distance of ≤10 nm to fibril) per 1 μm^2 for each image, with mean ± SD for each group. The differences in the gold-labeled antibodies binding to Aβ fibrils were tested with a one-way ANOVA.
Aβ1-40 and Aβ1-42 peptides (AnaSpec) were dissolved in 5 M guanidine-HCl, 50 mM Tris-HCl, pH 8.0 at a concentration of 1 mg/mL. For growth of the Aβ1-40 fibrils, the solution was dialyzed (dialysis tubes, 1 kDa cutoff, GE Healthcare) against buffer (100 mM Na2HPO4, pH 8, 0.01% NaN3) for 4–6 h, then sonicated and agitated based on protocols described by Petkova and colleagues. […]
A 5-μL aliquot of Aβ1-40 or Aβ1-42 fibril sample (1 mg/mL) was adsorbed for 1 min on a glow-discharged carbon-coated copper grid. […] All quantifications were done using the Visiopharm image analysis software. Gold-conjugated anti-Aβ antibodies and Aβ1-40 or Aβ1-42 fibrils were detected with a customized algorithm. […] The data were subjected to a D’Agostino & Pearson normality test, and P-values were subsequently calculated using a Kruskal-Wallis one-way analysis of variance (ANOVA).

[9] = test system: dimeric Aβ1-15 MAP; assay: ELISA with multi-antigen peptides, dimer; assay type: binding; settings: result in words
Experimental: as §1, §2, §3, §4, §5, §6

[10] = test system: monomeric Aβ1-40; settings: read-out: mAb binding soluble Aβ1-40 (EC50); ELISA; monomeric biotinylated Aβ1-40 on captured antibody (5 μg/mL); average of two measurements
Experimental: For preparation of monomeric Aβ peptides, the Aβ HFIP film was dissolved in dimethyl sulfoxide (DMSO) at a concentration of 1 mg/mL then diluted to the target concentration in assay buffers and used immediately.
To measure binding of soluble monomeric Aβ1-40 peptide to immobilized antibodies, plates were coated with 50 μL/well of 5 μg/mL AffiniPure goat anti-mouse IgG Fcγ fragment-specific antibody (Jackson ImmunoResearch) in Coating Buffer. […] Plates were incubated at room temperature for 1 h, washed 3 times with Wash Buffer, incubated with serially diluted monomeric biotin-conjugated Aβ1-40 (Aβ1-40-Lys-Biotin; AnaSpec) in Blocking Buffer at the indicated concentrations, and washed 3 times with Wash Buffer. Binding was detected using HRP-conjugated streptavidin (Thermo Fisher Scientific) followed by incubation with 1-Step TMB substrate.

[11] = biological target: fibrillar Aβ1-42; assay: ELISA, binding of antibodies to immobilized Aβ1-42 fibrils; settings: mIgG2a chimeric antibodies on fibrillar Aβ1-42 coated at 2.5 μg/mL, 2 h room temperature, average of two measurements, read-out: mAb binding aggregated Aβ1-42 (EC50)
Experimental: For binding of antibodies to immobilized Aβ, 96-well microplates (Nunc Maxisorp; Thermo Fisher Scientific) were coated with 50 μL/well of fibrillar Aβ1-42 peptide at 2.5 μg/mL overnight at 4 °C in Coating Buffer (15 mM Na2CO3, 35 mM NaHCO3, pH 9.6). […] Plates were washed with Wash Buffer (PBS containing 0.05% Tween-20) and blocked for 1 h at room temperature with Blocking Buffer (PBS containing 1% BSA). Antibodies or Fabs were serially diluted to the indicated concentrations in Assay Buffer, and 50 μL/well were added to plates in duplicate wells and incubated for 2 h at room temperature. Plates were washed three times with Wash Buffer, and bound antibodies or Fabs were detected using a horseradish peroxidase (HRP)-conjugated goat anti-mouse polyclonal secondary antibody (Jackson ImmunoResearch), followed by measurement of captured HRP by incubation with 1-Step TMB substrate (Thermo Fisher Scientific) following the manufacturer’s instructions.

[12] = test system: monomeric Aβ1-40-biotin; assay: SPR, Fab fragments binding to surface-captured Aβ1-40-biotin; settings: SPR Biacore T200
Experimental: Figure 2 Surface plasmon resonance analysis of the binding of anti-Aβ antibody Fab fragments to Aβ1-40-biotin immobilized on a biotin-capture sensor chip surface. […] Fabs were injected over an Aβ1-40-biotin coated sensor chip for 2 min in (a) and 3 min in (b–d), where the rising response describes the approach to steady state binding and beyond which the response drops due to dissociation of the Fabs.
Binding kinetics and affinity measurements were performed with a Biacore T200 instrument (GE Healthcare). Aβ1-40-biotin was captured on a Biotin CAPture chip (GE Healthcare) at 3–7 pg/mm^2 from solutions at 10–20 ng/mL in Biacore buffer (10 mM HEPES, pH 7.2, 150 mM NaCl, 3.4 mM EDTA, 0.05% BSA, 0.005% surfactant P20) using reagents and protocols provided by the manufacturer. […] Antibody Fab fragments were injected for 2-3 min at 30 μL/min and a range of concentrations in Biacore buffer, as indicated in the Fig. 2 legend, and the binding response relative to a reference sensor with no Aβ1-40-biotin was recorded. Data were analyzed with Biacore T200 Evaluation Software v3.0 using a 1:1 binding model.

[13] = Fab binding to Aβ1-40-biotin captured at 3–7 pg/mm^2, 1:1 binding model

Molecule | Aβ selectivity (Monomer, Aggregate) [1] | EC50 [2] [nM] | Kd [3] [nM] | decrease in affinity using soluble Aβ versus immobilized Aβ1-40 ([4]; comparison with Table 2) [fold] | decrease in association rate using soluble Aβ ([4]; comparison with immobilized Aβ1-40) [fold] | Kd ([4]; intact antibody captured at 100-600 RU on CM5 mouse antibody capture chip, 1:1 binding model, read-out: affinity of soluble Aβ1-28 for antibody) [nM] | affinity for tetrameric Aβ1-15 MAP [5] | labeling density of chaducanumab compared to the named antibody [6] [fold] | IC50 [7] [nM] | labeling density of ^chaducanumab compared to the named antibody [8] [fold] | affinity for dimeric Aβ1-15 MAP [9] | EC50 [10] [nM] | EC50 [11] [nM] | Association rate, ka [12, 13] [M⁻¹ s⁻¹] | Dissociation rate, kd [12, 13] [s⁻¹] | Kd ([12]; Fab binding to Aβ1-40-biotin, ^chaducanumab from steady state fit, read-out: Equilibrium affinity, KD) [nM]
B1 | A ≫ M | – | – | – | – | – | – | – | – | – | – | – | – | – | – | –
B2 | – | 5.9 | – | – | – | – | – | – | – | – | – | – | – | – | – | –
B3 | – | 5.9 | 97 | > 50 | 20 | ~1000 | sub-nanomolar | 3.1 | 330 | 3.6 | sub-nanomolar | 300 | 0.3 | 660000 | 0.015 | 23
